Experiment [1] concerns the target cynomolgus CD30L on HEK293 cells (cynomolgus). As to the kind of experiment: cell-based or functional assay.
Experiment [2] addresses T1, recombinant cynomolgus CD30L protein (cynomolgus).
T1 construct: Recombinant protein of the ELISA; also called cyCD30L; cyno CD30L
As to the kind of experiment: ELISA, cyCD30L, 1/50 dil. (In an ELISA, binding on a coated surface is turned into a signal by an enzyme label.)

Experiment [3] concerns the target T1, recombinant cynomolgus CD30L protein. As to the kind of experiment: ELISA, cyCD30L, 1/500 dil.
Experiment [4] shares this target. Kind of experiment: ELISA, cyCD30L, 1/5000 dil.
A further experiment concerns the target T2, recombinant human CD30L (human, UniProt P32971 63-234).
T2 construct: Recombinant or purified protein of the ELISA, BLI, Carterra and KinExA assays; construct not described; also called rhCD30L; huCD30L
T2 sequence (looked up): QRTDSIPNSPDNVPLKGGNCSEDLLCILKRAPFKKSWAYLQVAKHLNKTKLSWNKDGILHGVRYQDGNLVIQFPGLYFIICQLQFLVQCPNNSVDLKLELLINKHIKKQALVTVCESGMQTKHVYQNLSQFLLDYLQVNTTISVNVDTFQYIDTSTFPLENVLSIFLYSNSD
As to the kind of experiment: ELISA on rhCD30L, OD 450 nm against Ab (nM).

Experiment [5] deals with T3, human CD30L expressed on B16 cells (human, UniProt P32971 1-234).
T3 construct: whole, on cells; B16 cell line transfected to express human CD30L; also called B16-huCD30L; hCD30L B16
T3 sequence (looked up): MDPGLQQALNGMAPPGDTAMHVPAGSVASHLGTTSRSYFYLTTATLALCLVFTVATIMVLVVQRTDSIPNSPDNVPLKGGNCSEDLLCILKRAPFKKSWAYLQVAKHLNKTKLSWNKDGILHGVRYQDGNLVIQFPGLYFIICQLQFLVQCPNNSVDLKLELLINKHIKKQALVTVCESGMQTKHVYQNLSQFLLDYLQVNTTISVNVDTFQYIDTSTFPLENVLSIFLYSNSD
As to the kind of experiment: flow cytometry on B16-huCD30L cells, MFI against Ab (nM). For orientation: A flow cytometer gives signals particle by particle.

B1: Clone 1, Mouse IgG (antibody, V domains shown)
VH: QVQLQESGPGLVKPSETLSLTCTVSGGSISGYYWSWIRQPPVKGLEWIGYIFYSGYTKYNPSLKSRVTISVDTSKNQFSLKLSSVTAADTAVYYCARDRWDFDYWGQGALVTVSS
VL: AIQMTQSPSYLSASVGDRVTIACRASQGIRNNLGWYQQKPGKAPKLLIYAESSLQSGVPSRFSGSGSGTDFTLTISSLQPEDFATYYCLQDFNYPYTFGQGTKLEIK
With B1, in experiment [1], the “Inhibition of IL-8 release in a dual cell assay (HEK293-cyCD30L cells + K299 cells) IC50” value (“Inhibition of IL-8 release” for short) was 0.55 nM.

B2: Clone 1, Human IgG1 (antibody, V domains shown)
VH: QVQLQESGPGLVKPSETLSLTCTVSGGSISGYYWSWIRQPPVKGLEWIGYIFYSGYTKYNPSLKSRVTISVDTSKNQFSLKLSSVTAADTAVYYCARDRWDFDYWGQGALVTVSS
VL: AIQMTQSPSYLSASVGDRVTIACRASQGIRNNLGWYQQKPGKAPKLLIYAESSLQSGVPSRFSGSGSGTDFTLTISSLQPEDFATYYCLQDFNYPYTFGQGTKLEIK
Regarding B2, the “Inhibition of IL-8 release” value in experiment [1] came out at 0.22 nM.

B3: Clone 1 (antibody, V domains shown)
VH: QVQLQESGPGLVKPSETLSLTCTVSGGSISGYYWSWIRQPPVKGLEWIGYIFYSGYTKYNPSLKSRVTISVDTSKNQFSLKLSSVTAADTAVYYCARDRWDFDYWGQGALVTVSS
VL: AIQMTQSPSYLSASVGDRVTIACRASQGIRNNLGWYQQKPGKAPKLLIYAESSLQSGVPSRFSGSGSGTDFTLTISSLQPEDFATYYCLQDFNYPYTFGQGTKLEIK
notes: also called anti-CD30L antibody clone 1 (parental)
Regarding B3, the results for the “Elisa Binding (OD)” value in experiment [2], in experiment [3] and in experiment [4] were 2.83 OD, 2.87 OD and 1.16 OD, respectively.

B4: Clone 3 (antibody, V domains shown)
VH: QVQLQESGPGLVKPSETLSLTCTVSGGSISGYYWSWIRQPPVKGLEWIGYIFYSGYTKYNPSLKSRVTISVDTSKNQFSLKLSSVTAADTAVYYCARDRWDFDYWGQGALVTVSS
VL: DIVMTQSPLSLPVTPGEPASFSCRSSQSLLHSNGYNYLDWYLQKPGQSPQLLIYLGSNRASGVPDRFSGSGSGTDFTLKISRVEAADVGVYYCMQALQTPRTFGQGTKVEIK
notes: hybridoma clone
B4: the figures for the “Elisa Binding (OD)” value in experiment [2], in experiment [3] and in experiment [4] were 3.2 OD, 2.35 OD and 0.552 OD, respectively.

B5: Clone 2, Mouse IgG (antibody, V domains shown)
VH: EVQLVESGGGLVQPGRSLRLSCAASGFNFDDYAMHWVRQAPGKGLEWVSGISWRSGNIGYAGSVKGRFTISRDNAKNSLYLQMNSLRPEDSALYYCAKDKGIGFNWNYEGFDYWGQGTLVTVSS
VL: DIQMTQSPSSLSASVGDRVTITCRASQGISNHLAWFQQKPGKAPKSLIYAASSLQSGVPSKFSGSGSGTDFTLTISSLQPEDFATYYCQQYVTYPLTFGGGTKVEIK
Turning to B5, the “Inhibition of IL-8 release” value in experiment [1] turned out to be 0.46 nM.

B6: Clone 2, Human IgG1 (antibody, V domains shown)
VH: EVQLVESGGGLVQPGRSLRLSCAASGFNFDDYAMHWVRQAPGKGLEWVSGISWRSGNIGYAGSVKGRFTISRDNAKNSLYLQMNSLRPEDSALYYCAKDKGIGFNWNYEGFDYWGQGTLVTVSS
VL: DIQMTQSPSSLSASVGDRVTITCRASQGISNHLAWFQQKPGKAPKSLIYAASSLQSGVPSKFSGSGSGTDFTLTISSLQPEDFATYYCQQYVTYPLTFGGGTKVEIK
Take B6: the “Inhibition of IL-8 release” value in experiment [1] was 0.24 nM.

B7: Clone 2 (antibody, V domains shown)
VH: EVQLVESGGGLVQPGRSLRLSCAASGFNFDDYAMHWVRQAPGKGLEWVSGISWRSGNIGYAGSVKGRFTISRDNAKNSLYLQMNSLRPEDSALYYCAKDKGIGFNWNYEGFDYWGQGTLVTVSS
VL: DIQMTQSPSSLSASVGDRVTITCRASQGISNHLAWFQQKPGKAPKSLIYAASSLQSGVPSKFSGSGSGTDFTLTISSLQPEDFATYYCQQYVTYPLTFGGGTKVEIK
notes: also called anti-CD30L antibody clone 2 (parental)
Consider B7, for which the “Elisa Binding (OD)” value in experiment [2] is 3.76 OD; in experiment [3], 3.18 OD; in experiment [4] it was 1.23 OD.

B8: anti-CD30L antibody clone 80 (antibody, V domains shown)
VH: EVQLVESGGGLVQPGGSLRLSCEVSGFTFSSYDMHWVRQVTGTGLEWVSSIGIGGDTYYPGSVKGRFTISRENAKNSLYLQMNSLRGGDTGVYYCARGEWDLLWYFMDVWGKGTTVTVSS
VL: DIQMTQSPSSLSASIGDRVTITCRASQGISSWLAWYQQKPGKAPKLLIYAASSLQSGVPSRFSGSGSGTDFTLTISSLQPEDFATYYCQQANSFPLTFGGGTKVEIK
notes: purified recombinant IgG, mouse strain #1
On to B8, for which the EC50 (read off the curve) (in general, the concentration at which the effect is half-maximal) in the experiment with recombinant human CD30L is ~0.1 nM; in experiment [5], ~2 nM.

B9: Clone 4 (antibody, V domains shown)
VH: QVQLVESGGGVVQPGRSLRLSCAASGFPFSSYGMHWVRQAPGKGLEWVTFIWFDGNNKDYADSVKGRFSVSRDNSKNTLYLQMNSLRADDTAVYYCARNGVYYGSGAYVDYWGQGTLVTVSS
VL: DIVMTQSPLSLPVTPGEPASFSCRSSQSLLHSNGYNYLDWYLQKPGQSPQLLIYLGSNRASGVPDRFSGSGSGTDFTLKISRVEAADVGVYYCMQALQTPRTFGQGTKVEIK
notes: hybridoma clone
In the case of B9, the “Elisa Binding (OD)” value came out at 2.58 OD in experiment [2], 2.38 OD in experiment [3] and 0.583 OD in experiment [4].

B10: anti-CD30L Reference 1 antibody (antibody, human IgG1, lambda, V domains shown)
VH: QVQLQESGPGLVKPSETLSLTCTVSGGSISSYIWSWIRQPAGKGLEWIGRIYASGNTNYNPSLKSRVTISVDTSKNQFSLKLSSMTAADTAVYYCARDYRVAGTYYYYYGLDVWGQGTTVTVSS
VL: QSALTQPASVSGSPGQSITISCTGTSSDVGVYDYVSWYQQHPGKAPKLMIYEVSNRPSGVSNRFSGSKSGNTASLTISGLQTEDEADYYCSSYTSRSTWVFGGGTKLTVLG
Regarding B10, the “Inhibition of IL-8 release” value in experiment [1] was determined as 0.68 nM.

Source of the values: US20260209372A1 (PROMETHEUS BIOSCIENCES, published 2026).
